Measured values as given in patent US20040087506A1, “Methods of modulating FabH activity” (SmithKline Beecham Corporation, priority 1999, published 2004).

Substrate: CC(=O)SCCNC(=O)CCNC(=O)[C@H](O)C(C)(C)COP(=O)(O)OP(=O)(O)OC[C@H]1O[C@@H](n2cnc3c(N)ncnc32)[C@H](O)[C@@H]1OP(=O)(O)O
Test: purified protein, by the assay type
Settings: other: substrate of FabH; ping-pong mechanism, acetyl-CoA first substrate, malonyl-ACP second

B1: E. coli FabH (Escherichia coli K-12) (protein)
chain: MYTKIIGTGSYLPEQVRTNADLEKMVDTSDEWIVTRTGIRERHIAAPNETVSTMGFEAATRAIEMAGIEKDQIGLIVVATTSATHAFPSAACQIQSMLGIKGCPAFDVAAACAGFTYALSVADQYVKSGAVKYALVVGSDVLARTCDPTDRGTIIIFGDGAGAAVLAASEEPGIISTHLHADGSYGELLTLPNADRVNPENSIHLTMAGNEVFKVAVTELAHIVDETLAANNLDRSQLDWLVPHQANLRIISATAKKLGMSMDNVVVTLDRHGNTSAASVPCALDEAVRDGRIKPGQLVLLEAFGGGFTWGSALVRF
Km: 34 µM
